# According to paper PMC10397247:
# T1: P10
# T1 chain: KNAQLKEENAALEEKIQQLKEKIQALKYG
# T2: P11
# T2 chain: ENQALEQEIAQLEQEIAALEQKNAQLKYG
# T3: P12
# T3 chain: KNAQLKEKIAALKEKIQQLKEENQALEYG
# T4: P3
# T4 chain: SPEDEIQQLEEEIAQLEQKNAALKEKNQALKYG
# T5: P3mS
# T5 chain: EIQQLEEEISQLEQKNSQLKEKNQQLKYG
# T6: P4
# T6 chain: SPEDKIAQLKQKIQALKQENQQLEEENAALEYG
# T7: P4mS
# T7 chain: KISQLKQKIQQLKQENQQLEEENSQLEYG
# T8: P5SC1
# T8 chain: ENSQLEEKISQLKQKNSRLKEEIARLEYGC
# T9: P5SC2
# T9 chain: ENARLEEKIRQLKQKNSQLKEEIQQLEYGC
# T10: P5
# T10 chain: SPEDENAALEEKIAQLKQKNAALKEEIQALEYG
# T11: P5mS
# T11 chain: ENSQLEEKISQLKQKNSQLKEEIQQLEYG
# T12: P6SC1
# T12 chain: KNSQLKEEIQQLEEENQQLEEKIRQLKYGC
# T13: P6SC2
# T13 chain: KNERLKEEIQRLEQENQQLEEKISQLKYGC
# T14: P6
# T14 chain: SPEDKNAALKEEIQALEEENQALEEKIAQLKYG
# T15: P6mS
# T15 chain: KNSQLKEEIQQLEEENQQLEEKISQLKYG
# T16: P7
# T16 chain: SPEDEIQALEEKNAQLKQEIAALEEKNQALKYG
# T17: P7mS
# T17 chain: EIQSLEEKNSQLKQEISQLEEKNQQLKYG
# T18: P8
# T18 chain: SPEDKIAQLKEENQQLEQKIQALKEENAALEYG
# T19: P8mS
# T19 chain: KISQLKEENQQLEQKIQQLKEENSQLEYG
# T20: P9
# T20 chain: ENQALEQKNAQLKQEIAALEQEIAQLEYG
# T21: P3SH
# T21 chain: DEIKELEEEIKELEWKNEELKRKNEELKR
# T22: P4SH
# T22 chain: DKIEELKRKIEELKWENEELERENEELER
# T23: P5SH
# T23 chain: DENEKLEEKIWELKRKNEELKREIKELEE
# T24: P6SH
# T24 chain: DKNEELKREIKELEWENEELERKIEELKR
# T25: P7SH
# T25 chain: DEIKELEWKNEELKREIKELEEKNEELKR
# T26: P8SH
# T26 chain: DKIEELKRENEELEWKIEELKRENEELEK
# T27: Core_IIII-es_KKEE
# T27 chain: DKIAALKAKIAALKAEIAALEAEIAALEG
# Assays:
# P10 = biological target: T1, P10; assay: two-hybrid library CC1;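 also: natural log of median RNA to DNA barcode read ratio; higher means stronger binding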
# P11 = biological target: T2, P11; assay: two-hybrid library CC1; conditions: mean of both orientations;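 also: natural log of median RNA to DNA barcode read ratio; higher means stronger binding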
# P12 = biological target: T3, P12; assay: two-hybrid library CC1; conditions: mean of both orientations;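 also: natural log of median RNA to DNA barcode read ratio; higher means stronger binding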
# P3 = biological target: T4, P3; assay: two-hybrid library CC1; conditions: mean of both orientations;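 also: natural log of median RNA to DNA barcode read ratio; higher means stronger binding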
# P3mS = biological target: T5, P3mS; assay: two-hybrid library CC1; conditions: mean of both orientations;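 also: natural log of median RNA to DNA barcode read ratio; higher means stronger binding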
# P4 = biological target: T6, P4; assay: two-hybrid library CC1; conditions: mean of both orientations;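 also: natural log of median RNA to DNA barcode read ratio; higher means stronger binding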
# P4mS = biological target: T7, P4mS; assay: two-hybrid library CC1; conditions: mean of both orientations
# P5SC1 = biological target: T8, P5SC1; assay: two-hybrid library CC1; conditions: mean of both orientations
# P5SC2 = biological target: T9, P5SC2; assay: two-hybrid library CC1; conditions: mean of both orientations
# P5 = biological target: T10, P5; assay: two-hybrid library CC1; conditions: mean of both orientations
# P5mS = biological target: T11, P5mS; assay: two-hybrid library CC1; conditions: mean of both orientations
# P6SC1 = biological target: T12, P6SC1; assay: two-hybrid library CC1; conditions: mean of both orientations
# P6SC2 = biological target: T13, P6SC2; assay: two-hybrid library CC1; conditions: mean of both orientations
# P6 = biological target: T14, P6; assay: two-hybrid library CC1; conditions: mean of both orientations
# P6mS = biological target: T15, P6mS; assay: two-hybrid library CC1; conditions: mean of both orientations
# P7 = biological target: T16, P7; assay: two-hybrid library CC1; conditions: mean of both orientations
# P7mS = biological target: T17, P7mS; assay: two-hybrid library CC1; conditions: mean of both orientations
# P8 = biological target: T18, P8; assay: two-hybrid library CC1; conditions: mean of both orientations
# P8mS = biological target: T19, P8mS; assay: two-hybrid library CC1; conditions: mean of both orientations
# P9 = biological target: T20, P9; assay: two-hybrid library CC1; conditions: mean of both orientations
# P3SH = biological target: T21, P3SH; assay: two-hybrid library CCNG1
# P4SH = biological target: T22, P4SH; assay: two-hybrid library CCNG1
# P5SH = biological target: T23, P5SH; assay: two-hybrid library CCNG1
# P6SH = biological target: T24, P6SH; assay: two-hybrid library CCNG1
# P7SH = biological target: T25, P7SH; assay: two-hybrid library CCNG1
# P8SH = biological target: T26, P8SH; assay: two-hybrid library CCNG1
# Core_IIII-es_KKEE = biological target: T27, Core_IIII-es_KKEE; assay: two-hybrid library CCmax; conditions: mean of both orientations
binder,measurement,setting,value
KNAQLKEENAALEEKIQQLKEKIQALKYG [P10],interaction score,P10,-2.46
same,interaction score,P11,-0.938
same,interaction score,P12,-2.49
same,interaction score,P3,-1.63
same,interaction score,P3mS,-2.74
same,interaction score,P4,-2.91
same,interaction score,P4mS,-2.94
same,interaction score,P5SC1,-2.65
same,interaction score,P5SC2,-2.77
same,interaction score,P5,-2.96
same,interaction score,P5mS,-2.88
same,interaction score,P6SC1,-2.61
same,interaction score,P6SC2,-2.28
same,interaction score,P6,-1.77
same,interaction score,P6mS,-2.78
same,interaction score,P7,-0.907
same,interaction score,P7mS,-2.22
same,interaction score,P8,-2.83
same,interaction score,P8mS,-2.75
same,interaction score,P9,0.493
DEIKELEEEIKELEWKNEELKRKNEELKR [P3SH],interaction score,P3SH,0.764
same,interaction score,P4SH,1.95
same,interaction score,P5SH,0.554
same,interaction score,P6SH,0.737
same,interaction score,P7SH,-0.109
same,interaction score,P8SH,0.525
DEIAALEAEIAALEAKIAALKAKIAALKG [Core_IIII-es_EEKK],interaction score,Core_IIII-es_KKEE,1.78
